Experimental data as given in US20140193378A1 (UNIVERSITY OF MIAMI, published 2014).
Like-named read-outs stand apart in the source and are kept apart here. Non-standard residues stand in square brackets, D forms with d. *: point of attachment. Phe(F5) = N[C@@H](Cc1c(F)c(F)c(F)c(F)c1F)C(=O)O; Desaminotyrosyl = O=C(CCc1ccc(O)cc1)*; Agmatine = N=C(N)NCCCCN*; Nle = CCCC[C@H](N)C(=O)O; Orn = NCCC[C@H](N)C(=O)O; Abu = CC[C@H](N)C(=O)O; Ava = NCCCCC(=O)O; GABA = NCCCC(=O)O

Key:
[1] = molecular target: T1, human GHRH receptor (human pituitary membrane homogenates) (human) (UniProt Q02643); experiment: radioligand competition vs 125I-JV-1-42 (0.2 nM), human pituitary membranes
T1 sequence (looked up): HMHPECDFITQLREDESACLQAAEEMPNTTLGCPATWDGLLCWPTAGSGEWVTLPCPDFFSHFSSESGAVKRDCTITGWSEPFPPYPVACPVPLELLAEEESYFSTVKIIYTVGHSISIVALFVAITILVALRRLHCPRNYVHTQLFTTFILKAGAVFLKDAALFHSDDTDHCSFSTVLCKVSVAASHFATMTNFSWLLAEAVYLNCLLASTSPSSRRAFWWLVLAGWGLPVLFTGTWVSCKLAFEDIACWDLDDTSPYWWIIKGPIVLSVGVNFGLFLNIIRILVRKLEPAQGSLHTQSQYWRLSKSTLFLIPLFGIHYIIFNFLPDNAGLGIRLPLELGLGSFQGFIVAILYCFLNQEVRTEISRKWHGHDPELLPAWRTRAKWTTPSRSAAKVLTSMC

[2] = molecular target: T1, human GHRH receptor (human pituitary membrane homogenates) (human); experiment: radioligand competition vs [His1,125I-Tyr10,Nle27]hGHRH(1-32)NH2 (0.2 nM), human pituitary membranes
[3] = molecular target: T1, human GHRH receptor (human pituitary membrane homogenates) (human); experiment: radioligand competition vs 125I-JV-1-42 (0.2 nM), human pituitary membranes; remark: listed apart in the source
[4] = molecular target: T2, human GHRH receptor (human pituitary membrane homogenates) (human, UniProt Q02643 23-423); experiment: as above
T2 construct: whole, on cells; Native receptor in human pituitary membrane homogenates, not on intact cells; also called hGHRH receptor
T2 sequence (looked up): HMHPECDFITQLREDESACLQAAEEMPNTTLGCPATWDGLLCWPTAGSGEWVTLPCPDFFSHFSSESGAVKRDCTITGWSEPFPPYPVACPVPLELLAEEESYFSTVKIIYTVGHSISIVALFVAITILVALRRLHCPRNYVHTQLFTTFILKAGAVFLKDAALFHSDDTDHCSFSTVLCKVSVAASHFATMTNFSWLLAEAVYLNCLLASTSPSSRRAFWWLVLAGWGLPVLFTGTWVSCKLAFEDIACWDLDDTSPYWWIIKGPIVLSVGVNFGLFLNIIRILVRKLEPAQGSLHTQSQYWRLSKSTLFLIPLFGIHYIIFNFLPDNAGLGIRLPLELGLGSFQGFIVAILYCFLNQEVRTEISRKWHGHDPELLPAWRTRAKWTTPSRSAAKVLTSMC
From the text: (§1) Normal human pituitaries were purchased from the National Hormone and Peptide Program (A. F. Parlow, Los Angeles, County Harbor-UCLA Medical Center, Torrance, Calif.).

[5] = molecular target: T2, human GHRH receptor (human pituitary …); experiment: as above; remark: listed apart in the source
From the text: as §1

JI-38 (peptide)
Relative affinity (Binding potency) vs GHRH [1]: 2.4 fold
Relative affinity (Binding potency) vs JI-38 [1]: 1 fold
Relative affinity (Binding potency) vs GHRH [2]: 3.03 fold
Relative affinity (Binding potency) vs JI-38 [2]: 1 fold

P-20356 [N-Me-Tyr^1, Gln^8, Orn^12, Abu^15, Orn^21, Nle^27, Asp^28, Agm^29]hGHRH(1-29)NH2 (peptide)
Relative affinity (Binding potency) vs GHRH [1]: 406 fold
Relative affinity (Binding potency) vs JI-38 [1]: 171 fold
Relative affinity (Binding potency) vs JI-38 [3]: 16.1 fold

JI-34 (peptide)
Relative affinity (Binding potency) vs GHRH [2]: 4.32 fold

JI-36 (peptide)
Relative affinity (Binding potency) vs GHRH [2]: 3.25 fold

B1: P-22327 [Dat^1, Gln^8, Orn^12, Abu^15, Orn^21, Nle^27, Asp^28, Apa^30]hGHRH(1-30)NH2 (peptide, from a related filing)
peptide: [Desaminotyrosyl]ADAIFTQSYR[Orn]VL[Abu]QLSAR[Orn]LLQDI[Nle]DR[Ava]-NH2
SMILES: CCCC[C@H](NC(=O)[C@@H](NC(=O)[C@H](CC(=O)O)NC(=O)[C@H](CCC(N)=O)NC(=O)[C@H](CC(C)C)NC(=O)[C@H](CC(C)C)NC(=O)[C@H](CCCN)NC(=O)[C@H](CCCNC(=N)N)NC(=O)[C@H](C)NC(=O)[C@H](CO)NC(=O)[C@H](CC(C)C)NC(=O)[C@H](CCC(N)=O)NC(=O)[C@H](CC)NC(=O)[C@H](CC(C)C)NC(=O)[C@@H](NC(=O)[C@H](CCCN)NC(=O)[C@H](CCCNC(=N)N)NC(=O)[C@H](Cc1ccc(O)cc1)NC(=O)[C@H](CO)NC(=O)[C@H](CCC(N)=O)NC(=O)[C@@H](NC(=O)[C@H](Cc1ccccc1)NC(=O)[C@@H](NC(=O)[C@H](C)NC(=O)[C@H](CC(=O)O)NC(=O)[C@H](C)NC(=O)CCc1ccc(O)cc1)[C@@H](C)CC)[C@@H](C)O)C(C)C)[C@@H](C)CC)C(=O)N[C@@H](CC(=O)O)C(=O)N[C@@H](CCCNC(=N)N)C(=O)NCCCCC(N)=O
Relative affinity (Binding potency) vs JI-38 [3]: 2.18 fold

B2: P-20350 [Dat^1, D-Ala^2, Gln^8, Orn^12, Abu^15, Orn^21, Nle^27, Asp^28, Agm^29]hGHRH(1-29)NH2 (peptide)
peptide: [Desaminotyrosyl][dA]DAIFTQSYR[Orn]VL[Abu]QLSAR[Orn]LLQDI[Nle]D[Agmatine]
SMILES: CCCC[C@H](NC(=O)[C@@H](NC(=O)[C@H](CC(=O)O)NC(=O)[C@H](CCC(N)=O)NC(=O)[C@H](CC(C)C)NC(=O)[C@H](CC(C)C)NC(=O)[C@H](CCCN)NC(=O)[C@H](CCCNC(=N)N)NC(=O)[C@H](C)NC(=O)[C@H](CO)NC(=O)[C@H](CC(C)C)NC(=O)[C@H](CCC(N)=O)NC(=O)[C@H](CC)NC(=O)[C@H](CC(C)C)NC(=O)[C@@H](NC(=O)[C@H](CCCN)NC(=O)[C@H](CCCNC(=N)N)NC(=O)[C@H](Cc1ccc(O)cc1)NC(=O)[C@H](CO)NC(=O)[C@H](CCC(N)=O)NC(=O)[C@@H](NC(=O)[C@H](Cc1ccccc1)NC(=O)[C@@H](NC(=O)[C@H](C)NC(=O)[C@H](CC(=O)O)NC(=O)[C@@H](C)NC(=O)CCc1ccc(O)cc1)[C@@H](C)CC)[C@@H](C)O)C(C)C)[C@@H](C)CC)C(=O)N[C@@H](CC(=O)O)C(=O)NCCCCNC(=N)N
notes: also called Peptide 20350
Relative affinity (Binding potency) vs GHRH [4]: 102 fold
Relative affinity (Binding potency) vs JI-38 [4]: 42.7 fold
Relative affinity (Binding potency) vs JI-38 [5]: 8.37 fold

B3: P-25502 [Dat^1, D-Ala^2, Fpa5^6, Orn^12, Abu^15, Orn^21, Nle^27, Gab^30]hGHRH(1-30)NH2 (peptide)
peptide: [Desaminotyrosyl][dA]DAI[Phe(F5)]TNSYR[Orn]VL[Abu]QLSAR[Orn]LLQDI[Nle]SR[GABA]-NH2
SMILES: CCCC[C@H](NC(=O)[C@@H](NC(=O)[C@H](CC(=O)O)NC(=O)[C@H](CCC(N)=O)NC(=O)[C@H](CC(C)C)NC(=O)[C@H](CC(C)C)NC(=O)[C@H](CCCN)NC(=O)[C@H](CCCNC(=N)N)NC(=O)[C@H](C)NC(=O)[C@H](CO)NC(=O)[C@H](CC(C)C)NC(=O)[C@H](CCC(N)=O)NC(=O)[C@H](CC)NC(=O)[C@H](CC(C)C)NC(=O)[C@@H](NC(=O)[C@H](CCCN)NC(=O)[C@H](CCCNC(=N)N)NC(=O)[C@H](Cc1ccc(O)cc1)NC(=O)[C@H](CO)NC(=O)[C@H](CC(N)=O)NC(=O)[C@@H](NC(=O)[C@H](Cc1c(F)c(F)c(F)c(F)c1F)NC(=O)[C@@H](NC(=O)[C@H](C)NC(=O)[C@H](CC(=O)O)NC(=O)[C@@H](C)NC(=O)CCc1ccc(O)cc1)[C@@H](C)CC)[C@@H](C)O)C(C)C)[C@@H](C)CC)C(=O)N[C@@H](CO)C(=O)N[C@@H](CCCNC(=N)N)C(=O)NCCCC(N)=O
notes: also called Peptide 25502; MR-502
Relative affinity (Binding potency) vs GHRH [4]: 58 fold
Relative affinity (Binding potency) vs JI-38 [4]: 24.4 fold
Relative affinity (Binding potency) vs JI-38 [5]: 13.2 fold
